“And” between values parts separate entries of the source, which are not always exact repeats. Equal values may be shown once.
What was measured:
Assay in all cases: ELISA dose response, GP coated
[1] = target: T1, recombinant RESTV glycoprotein (RESTV (Reston ebolavirus), UniProt Q66799 34-651)
T1 sequence: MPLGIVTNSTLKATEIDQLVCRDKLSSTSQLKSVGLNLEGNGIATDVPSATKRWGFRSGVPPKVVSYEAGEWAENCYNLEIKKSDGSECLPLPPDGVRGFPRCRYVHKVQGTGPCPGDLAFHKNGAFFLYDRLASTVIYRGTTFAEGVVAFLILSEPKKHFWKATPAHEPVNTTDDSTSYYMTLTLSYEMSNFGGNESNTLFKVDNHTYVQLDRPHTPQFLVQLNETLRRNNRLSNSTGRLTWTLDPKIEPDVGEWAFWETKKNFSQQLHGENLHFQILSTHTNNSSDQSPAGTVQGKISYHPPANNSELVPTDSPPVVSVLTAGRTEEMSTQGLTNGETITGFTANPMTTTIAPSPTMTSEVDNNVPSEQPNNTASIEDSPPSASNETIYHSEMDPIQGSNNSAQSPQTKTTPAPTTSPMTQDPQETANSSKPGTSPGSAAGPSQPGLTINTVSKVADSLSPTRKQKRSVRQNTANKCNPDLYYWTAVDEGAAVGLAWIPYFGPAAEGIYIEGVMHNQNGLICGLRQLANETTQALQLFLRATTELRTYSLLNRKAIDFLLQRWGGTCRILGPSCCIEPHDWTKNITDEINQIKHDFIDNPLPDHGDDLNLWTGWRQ

[2] = target: T2, recombinant TAFV glycoprotein (TAFV (Tai Forest virus), UniProt Q66810 33-650)
T2 sequence: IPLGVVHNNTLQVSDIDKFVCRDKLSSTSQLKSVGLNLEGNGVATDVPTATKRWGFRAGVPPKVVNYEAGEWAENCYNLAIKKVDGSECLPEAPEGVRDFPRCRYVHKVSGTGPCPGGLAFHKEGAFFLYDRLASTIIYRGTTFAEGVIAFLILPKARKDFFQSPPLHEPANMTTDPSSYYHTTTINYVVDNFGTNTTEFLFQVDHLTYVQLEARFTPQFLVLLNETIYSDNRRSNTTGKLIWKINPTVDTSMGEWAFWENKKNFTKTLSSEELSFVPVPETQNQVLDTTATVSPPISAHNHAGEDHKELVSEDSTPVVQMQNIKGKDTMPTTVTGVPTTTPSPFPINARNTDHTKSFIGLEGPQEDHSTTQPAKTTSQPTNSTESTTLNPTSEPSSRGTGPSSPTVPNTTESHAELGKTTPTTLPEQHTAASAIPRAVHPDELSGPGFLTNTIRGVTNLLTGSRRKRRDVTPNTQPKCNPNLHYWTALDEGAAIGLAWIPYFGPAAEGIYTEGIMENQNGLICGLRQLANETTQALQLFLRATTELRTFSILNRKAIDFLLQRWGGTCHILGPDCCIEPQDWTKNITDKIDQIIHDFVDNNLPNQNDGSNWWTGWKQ

[3] = target: T3, recombinant SUDV glycoprotein (SUDV (Sudan ebolavirus), UniProt Q7T9D9 33-650)
T3 sequence: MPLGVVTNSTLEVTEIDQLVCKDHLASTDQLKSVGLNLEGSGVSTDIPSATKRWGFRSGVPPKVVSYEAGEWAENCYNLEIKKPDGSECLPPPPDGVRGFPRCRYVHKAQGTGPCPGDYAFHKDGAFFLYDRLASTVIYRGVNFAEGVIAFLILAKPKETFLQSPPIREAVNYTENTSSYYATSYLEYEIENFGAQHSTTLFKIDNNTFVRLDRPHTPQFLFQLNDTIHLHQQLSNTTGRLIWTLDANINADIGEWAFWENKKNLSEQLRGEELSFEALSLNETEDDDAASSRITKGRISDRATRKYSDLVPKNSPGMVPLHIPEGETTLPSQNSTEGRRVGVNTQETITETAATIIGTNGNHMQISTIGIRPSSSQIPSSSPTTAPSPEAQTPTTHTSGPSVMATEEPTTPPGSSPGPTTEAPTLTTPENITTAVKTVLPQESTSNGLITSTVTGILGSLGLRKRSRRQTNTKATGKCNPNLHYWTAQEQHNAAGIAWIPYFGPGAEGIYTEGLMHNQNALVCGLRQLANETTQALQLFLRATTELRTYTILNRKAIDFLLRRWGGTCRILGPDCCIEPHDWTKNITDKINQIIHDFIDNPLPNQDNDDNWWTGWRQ

[4] = target: T4, recombinant EBOV glycoprotein (EBOV (Zaire ebolavirus), UniProt Q05320 33-650)
T4 sequence: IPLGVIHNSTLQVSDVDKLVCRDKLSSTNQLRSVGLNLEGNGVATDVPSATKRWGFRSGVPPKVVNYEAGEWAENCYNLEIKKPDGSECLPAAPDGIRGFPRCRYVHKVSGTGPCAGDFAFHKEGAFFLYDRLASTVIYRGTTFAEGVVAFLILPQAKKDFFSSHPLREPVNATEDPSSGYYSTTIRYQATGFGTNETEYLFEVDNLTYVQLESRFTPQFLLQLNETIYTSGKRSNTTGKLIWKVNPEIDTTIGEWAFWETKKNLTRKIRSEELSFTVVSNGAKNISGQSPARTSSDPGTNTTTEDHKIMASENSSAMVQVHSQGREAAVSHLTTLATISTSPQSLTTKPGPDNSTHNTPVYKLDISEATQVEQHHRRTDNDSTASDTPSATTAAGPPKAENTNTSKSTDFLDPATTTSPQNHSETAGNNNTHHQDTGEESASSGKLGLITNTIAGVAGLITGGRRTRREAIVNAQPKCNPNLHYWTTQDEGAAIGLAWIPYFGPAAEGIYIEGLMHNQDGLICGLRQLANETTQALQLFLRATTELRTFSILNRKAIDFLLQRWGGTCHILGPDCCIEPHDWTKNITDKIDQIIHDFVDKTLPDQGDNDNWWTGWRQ

B1: EbovGPscFv4-2 (scFv)
scFv: MAWSHPQFEKTGSGGAELVKSGASVKLSCTASGFNIKDDYMHWVKQRPEQGLEWIGWIDPENGDTEYASKFQGKATITADTSSNTAYLQLSSLTSEDTAVYYCTTYYYGSAWFAYWGQGTLVTVSAGGGGSGGGGSGGGGSGGGGSASLSVSVGETVTITCRASGNIHNYLAWYQQKQGKSPQLLVYNAKTLADGVPSRFSGSGSGTQYSLKINNLQPEDFGSYYCQHFWSTPYTFGGGTKLEIKRADAAPTVSIFPPSSEQLTSGGASVVCFLNNFTHCQELQQDECS
For B1, the EC50 [1] was < 9 µg/mL and 7.44 µg/mL, the EC50 [2] was < 9 µg/mL and 6.95 µg/mL and the EC50 [3] was 5.3 µg/mL and < 9 µg/mL. For the same binder, the EC50 [4] was 4.09 µg/mL and < 9 µg/mL.
